In article PMC5696595, “Therapeutic Application of Phage Capsule Depolymerases against K1, K5, and K30 Capsulated E. coli in Mice” (Frontiers in Microbiology, 2017):

Legend:
Test in all cases: SEC; analytical size exclusion on Superose 6 10/300 GL, AKTA FPLC, 4°C, 25 mM sodium phosphate, 150 mM NaCl, pH 7.5, 0.4 ml/min; molecular weights estimated with high molecular weight calibration kit; 200 μg to 1 mg protein loaded
[1] = biological target: K1F depolymerase (coliphage K1F)
[2] = biological target: K1H depolymerase (coliphage K1H)
[3] = biological target: K5 depolymerase (coliphage K1-5)
[4] = biological target: the molecule itself

## K1F depolymerase (enzyme)
[1]
  stoichiometry N: 3

## K1H depolymerase (enzyme)
[2]
  stoichiometry N: 3

## K5 depolymerase (enzyme)
[3]
  stoichiometry N: 3

B1: K30 gp42 (natural protein)
chain: MLDKLNQPKGSTIGVLKDGRTTQEAIDELTNDVTGSITTTRYASSASQALFPKLIDKMTAYRHGVSGFQDKFRIYGYGSSVGNGATIGGNSSPNTPVAKFFEHFQRTVNKAGIYPFEYSNKSVDGSNINDFLNREWPATVATGVFPDLAVFAYGMNDFPSAQYNAGMTFGANGFKQRLRNAIQKVRDAGGDVVLLTTPHPNIEEYSWELPSSIDMVWPQFAAKPVAGDVLIPPVSQSNVSFDFMGKRITQGVRFLRGNDAMREVAVEMGCVLIDVEKYWFEAVGKYGNVLLFDRVPAMQTVHPNLLGHQQSYWRAIEEFFNNVDSSGWIAPDAKLNQTLDVGGNALNPAKMEADVDLQANGIRQRAFVRRDKSGRVMEELTQDSRVKRTSYTVSDPTVSAPGYSLTWDEWFTRTKGLFTSGETLGIPVNNRTEGRLLVTAWISGQTGWTQLEDYLVSNREGVVLVSKIGSLDNTPPAGGTGTNGQRLFTVSTSANNVVVNILSDNATVKFKLDTFGA
[4]
  stoichiometry N: 3

B2: K30 gp41 (enzyme)
chain: MDQDIKTVIQYPVGATEFDIPFDYLSRKFVRVSLVTGDNRRLLSNITEYRYVSKTRVKLLVETAGFDRVEIRRFTSASERIVDFSDGSVLRAADLNVSQIQSAHIAEEARDAALMAMPQDDVGNLDARNRRIVRLAPGIDSTDAINKNQLDTTLGEAGGILSQVKDTQKDIQNYIQKFGDDTAMVRGVNWVYNGGSAIGGETSFIIDKSAPVFAVPYIEVNGSRQFRDWQYEYDPATKRVTLVKPLEAGDFVVCLTTENKLPLEDLLASTGGADSIGKAGGGTVQDGLDATIHGTDVHRDTVTPGKLDTLLVYNGTNAGRDLRGHEFVMPHGTFSATRILRTRGISAAESKYTGFTWRGQGSSFTKLVHPATGGQGDIAFMDYLKDVTMSGFMMDNTALGQGTSNQDTRNGQFWIRHSVDSYFDDLRFAGADALTFCLDHCKNIYSTNLKVDYQLRYPTGTGKSPLIVGDYSEQCMFIGGYVKTVSPDGTIKYAGDLADNDQADDTKWAFINLYGLTFEQKPNSNACMWQEGEGAPSNAHFIGMNYINNGVGHGVSEKAVGTDIGSTFRQAQVRAVWNRAEYISIGSHFINNDAKYPAGTGGAGTAAAGGVHNDNAKFTSLVGDYFRGNFADYTDYTGASGVNPENSTHITNAKLTSIIRTSSSSTSQHLAIVNCQLTSAGRISGGGNGRLHVSVVASHCVGPLGQFGHGQSETYLDVINSTFTAAGSTEAMITQSGVGNISFANSTFRDYIRVVDGSHTRVTFRNCTFYTCTFTEDDRKARYVNCRFISCTDAPDSFGLNFAADSLDRPSSLRVNVTLTAGGSYTFPAWVLQGRGAYFINVGGNGANLPACAGIIGKSSATGSGVWTPQWESTPSSIVVSWPSNGYITVTATTAGNYTIGVH
[4]
  stoichiometry N: 3
